US20240352102

How the values were obtained:
[1] = tested on: tau isoform 1N3R (3R tau, MAPT) (Homo sapiens), P10636-4; test: SPR; settings: 50 mM HEPES, 25 mM NaCl, 0.1% Tween-20, pH 7.4; poly(A) length not restated for 3R
[2] = tested on: tau isoform 1N4R (4R tau, MAPT) (Homo sapiens), P10636-7; test: SPR; settings: 50 mM HEPES, 25 mM NaCl, 0.1% Tween-20, pH 7.4
Chain of tau isoform 1N4R (4R tau, MAPT) (Homo sapiens), P10636-7 (P10636 other isoform, or with tags, fused parts or gaps): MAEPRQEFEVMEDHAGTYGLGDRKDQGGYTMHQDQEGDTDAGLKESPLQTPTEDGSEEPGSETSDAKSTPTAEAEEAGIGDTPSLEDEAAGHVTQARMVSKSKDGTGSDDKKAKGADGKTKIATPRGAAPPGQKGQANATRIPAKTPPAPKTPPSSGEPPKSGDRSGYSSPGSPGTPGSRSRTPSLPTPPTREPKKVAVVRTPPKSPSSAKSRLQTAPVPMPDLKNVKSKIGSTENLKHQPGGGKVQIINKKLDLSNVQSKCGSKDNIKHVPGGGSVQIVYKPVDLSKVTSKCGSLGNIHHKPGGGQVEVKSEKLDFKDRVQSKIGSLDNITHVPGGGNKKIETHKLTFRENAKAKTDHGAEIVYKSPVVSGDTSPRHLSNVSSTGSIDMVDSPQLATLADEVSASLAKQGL

Chain of tau isoform 1N3R (3R tau, MAPT) (Homo sapiens), P10636-4 (P10636 other isoform, or with tags, fused parts or gaps): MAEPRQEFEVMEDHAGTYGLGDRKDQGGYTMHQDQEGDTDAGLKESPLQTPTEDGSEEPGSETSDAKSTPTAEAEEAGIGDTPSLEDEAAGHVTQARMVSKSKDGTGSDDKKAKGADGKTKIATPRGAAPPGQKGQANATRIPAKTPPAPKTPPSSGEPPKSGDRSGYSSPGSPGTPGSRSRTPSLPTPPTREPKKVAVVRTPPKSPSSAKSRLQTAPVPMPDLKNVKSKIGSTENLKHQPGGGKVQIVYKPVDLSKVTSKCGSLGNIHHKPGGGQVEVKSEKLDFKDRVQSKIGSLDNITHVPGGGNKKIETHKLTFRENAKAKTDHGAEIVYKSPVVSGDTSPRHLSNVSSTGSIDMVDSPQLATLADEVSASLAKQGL

Substance | Kd [1] | Kd ([2]; streptavidin chip, poly(A)20 length from FIG. 1B trace) | Kd [2]
A [biotin poly(A)20 RNA] | 8.3 nM | 7.2 nM | 
biotin tRNA-Lys |  |  | > 30 nM
